The target in data set [1] is T1, ProQ (minimal ProQ, FinO domain with short N- and C-terminal extensions) (Neisseria meningitidis) (UniProt Q9JY98).
T1 sequence: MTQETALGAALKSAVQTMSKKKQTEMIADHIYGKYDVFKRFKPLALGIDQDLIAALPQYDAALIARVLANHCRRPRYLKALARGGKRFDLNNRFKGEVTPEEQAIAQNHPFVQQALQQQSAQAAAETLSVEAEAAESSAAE
The experiment in a line: EMSA. The following applies: 25 mM Tris pH 7.5, 150 mM NaCl, 5% glycerol, 1 mM MgCl2, 1 nM 32P-RNA, ProQ up to 50 nM, 30 min at room temperature; 6% native gel at 4 C.

Data set [2] has as its target T2, ProQ (minimal ProQ, FinO domain with short N- and C-terminal extensions) (Neisseria meningitidis, UniProt Q9JY98 1-141).
T2 sequence: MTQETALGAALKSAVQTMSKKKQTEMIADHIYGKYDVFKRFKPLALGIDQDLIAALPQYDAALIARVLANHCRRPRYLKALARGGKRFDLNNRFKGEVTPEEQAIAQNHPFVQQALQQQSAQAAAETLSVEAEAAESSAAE
Description: EMSA; max bound 79%; 25 mM Tris pH 7.5, 150 mM NaCl, 5% glycerol, 1 mM MgCl2, 1 nM 32P-RNA, ProQ up to 50 nM, 30 min at room temperature; 6% native gel at 4 C. The settings on record: protein: recombinant; tags: N-terminal His6-TEV, cleaved; one extra N-terminal Ser remains; label: 5'-32P; terminator hairpin, 6-U tail.

Data set [3] deals with T2, ProQ (minimal ProQ, FinO domain with …). The experiment in a line: EMSA; max bound 88%; 25 mM Tris pH 7.5, 150 mM NaCl, 5% glycerol, 1 mM MgCl2, 1 nM 32P-RNA, ProQ up to 50 nM, 30 min at room temperature; 6% native gel at 4 C. The settings on record: protein: recombinant, tags: N-terminal His6-TEV, cleaved, one extra N-terminal Ser remains, label: 5'-32P, terminator hairpin.

Data set [4] has the same target. The experiment in a line: EMSA; undetected up to 50 nM ProQ; 25 mM Tris pH 7.5, 150 mM NaCl, 5% glycerol, 1 mM MgCl2, 1 nM 32P-RNA, ProQ up to 50 nM, 30 min at room temperature; 6% native gel at 4 C. The following applies: protein: recombinant; tags: N-terminal His6-TEV, cleaved; one extra N-terminal Ser remains; label: 5'-32P; terminator hairpin, no tail.
Data set [5] has the same target. The experiment in a line: EMSA; max bound 90%; 25 mM Tris pH 7.5, 150 mM NaCl, 5% glycerol, 1 mM MgCl2, 1 nM 32P-RNA, ProQ up to 50 nM, 30 min at room temperature; 6% native gel at 4 C. The settings on record: protein: recombinant; tags: N-terminal His6-TEV, cleaved; one extra N-terminal Ser remains; label: 5'-32P; terminator hairpin, 5-U tail.
The target is the same in data set [6]. The experiment in a line: EMSA; max bound 53%; 25 mM Tris pH 7.5, 150 mM NaCl, 5% glycerol, 1 mM MgCl2, 1 nM 32P-RNA, ProQ up to 50 nM, 30 min at room temperature; 6% native gel at 4 C. The settings on record: protein: recombinant; tags: N-terminal His6-TEV, cleaved; one extra N-terminal Ser remains; label: 5'-32P; terminator hairpin, 4-U tail.
For data set [7] the target is unchanged. Description: EMSA; max bound 58%; 25 mM Tris pH 7.5, 150 mM NaCl, 5% glycerol, 1 mM MgCl2, 1 nM 32P-RNA, ProQ up to 50 nM, 30 min at room temperature; 6% native gel at 4 C. The following applies: protein: recombinant; tags: N-terminal His6-TEV, cleaved; one extra N-terminal Ser remains; label: 5'-32P; terminator hairpin, 4-U tail.
Data set [8] shares this target. Description: EMSA; max bound 85%; 25 mM Tris pH 7.5, 150 mM NaCl, 5% glycerol, 1 mM MgCl2, 1 nM 32P-RNA, ProQ up to 50 nM, 30 min at room temperature; 6% native gel at 4 C. The following applies: protein: recombinant; tags: N-terminal His6-TEV, cleaved; one extra N-terminal Ser remains; label: 5'-32P; terminator hairpin, 5-U tail.
Data set [9] has the same target. Description: EMSA; max bound 53%; Hill fit; 25 mM Tris pH 7.5, 150 mM NaCl, 5% glycerol, 1 mM MgCl2, 1 nM 32P-RNA, ProQ up to 50 nM, 30 min at room temperature; 6% native gel at 4 C. The following applies: protein: recombinant; tags: N-terminal His6-TEV, cleaved; one extra N-terminal Ser remains; label: 5'-32P; terminator hairpin, GAAA loop.
Data set [10] shares this target. The experiment in a line: EMSA; max bound 89%; 25 mM Tris pH 7.5, 150 mM NaCl, 5% glycerol, 1 mM MgCl2, 1 nM 32P-RNA, ProQ up to 50 nM, 30 min at room temperature; 6% native gel at 4 C. The following applies: protein: recombinant, tags: N-terminal His6-TEV, cleaved, one extra N-terminal Ser remains, label: 5'-32P, terminator hairpin.
Data set [11] has the same target. The experiment in a line: EMSA; max bound 66%; estimated, not accurately fit; 25 mM Tris pH 7.5, 150 mM NaCl, 5% glycerol, 1 mM MgCl2, 1 nM 32P-RNA, ProQ up to 50 nM, 30 min at room temperature; 6% native gel at 4 C. The settings on record: protein: recombinant; tags: N-terminal His6-TEV, cleaved; one extra N-terminal Ser remains; label: 5'-32P; terminator hairpin, 7 nt 3' tail.

Data set [12] has the same target. The experiment in a line: EMSA; max bound 91%; 25 mM Tris pH 7.5, 150 mM NaCl, 5% glycerol, 1 mM MgCl2, 1 nM 32P-RNA, ProQ up to 50 nM, 30 min at room temperature; 6% native gel at 4 C. The settings on record: protein: recombinant; tags: N-terminal His6-TEV, cleaved; one extra N-terminal Ser remains; label: 5'-32P; hairpin, GAAA loop.
For data set [13] the target is unchanged. Description: EMSA; max bound 81%; 25 mM Tris pH 7.5, 150 mM NaCl, 5% glycerol, 1 mM MgCl2, 1 nM 32P-RNA, ProQ up to 50 nM, 30 min at room temperature; 6% native gel at 4 C. The settings on record: protein: recombinant; tags: N-terminal His6-TEV, cleaved; one extra N-terminal Ser remains; label: 5'-32P; terminator hairpin, GAAA loop.
Data set [14] has the same target. Description: EMSA; max bound 80%; 25 mM Tris pH 7.5, 150 mM NaCl, 5% glycerol, 1 mM MgCl2, 1 nM 32P-RNA, ProQ up to 50 nM, 30 min at room temperature; 6% native gel at 4 C. The settings on record: protein: recombinant; tags: N-terminal His6-TEV, cleaved; one extra N-terminal Ser remains; label: 5'-32P; hairpin, GAAA loop.
Data set [15] shares this target. The experiment in a line: EMSA; max bound 64%; 25 mM Tris pH 7.5, 150 mM NaCl, 5% glycerol, 1 mM MgCl2, 1 nM 32P-RNA, ProQ up to 50 nM, 30 min at room temperature; 6% native gel at 4 C. The following applies: protein: recombinant; tags: N-terminal His6-TEV, cleaved; one extra N-terminal Ser remains; label: 5'-32P; hairpin, GAAA loop.
Data set [16] shares this target. Description: EMSA; max bound 86%; 25 mM Tris pH 7.5, 150 mM NaCl, 5% glycerol, 1 mM MgCl2, 1 nM 32P-RNA, ProQ up to 50 nM, 30 min at room temperature; 6% native gel at 4 C. The following applies: protein: recombinant; tags: N-terminal His6-TEV, cleaved; one extra N-terminal Ser remains; label: 5'-32P.

carA-5' came in with a Kd in data set [1] of 1.3 nM.

iga-3' showed a Kd in data set [1] of 0.3 nM.

As to pnp-5', the Kd in data set [1] came out at 7.9 nM.

B1: AniS-U6 (structured_RNA)
RNA: GGUUUCCUCUUGAUGUGUGUGUUUGGGUGUGGCUGCCGCCACCCCUUUUUU
Regarding B1, the Kd in data set [2] came to 0.7 ± 0.62 nM.

B2: rpmG-U6AU2 (structured_RNA)
RNA: GGGAUUUCAGUUUGAAAGCAAAGCCUCCGACUGUUCGGAGGCUUUUUUAUU
As to B2, in data set [3] (9 nt 3' tail), the Kd was 0.22 ± 0.26 nM.

B3: AniS-noU (structured_RNA)
RNA: GGUUUCCUCUUGAUGUGUGUGUUUGGGUGUGGCUGCCGCCACCCC
As for B3, the binding result in [4] is listed as “no binding”.

B4: AniS-U5 (structured_RNA)
RNA: GGUUUCCUCUUGAUGUGUGUGUUUGGGUGUGGCUGCCGCCACCCCUUUUU
In the case of B4, the dissociation constant Kd in data set [5] stood at 6.5 ± 1.3 nM.

B5: AniS-U4 (structured_RNA)
RNA: GGUUUCCUCUUGAUGUGUGUGUUUGGGUGUGGCUGCCGCCACCCCUUUU
As for B5, the Kd in [6] came out at 0.9 ± 0.58 nM.

B6: rpmG-U4 (structured_RNA)
RNA: GGGAUUUCAGUUUGAAAGCAAAGCCUCCGACUGUUCGGAGGCUUUU
As for B6, in [7], the Kd is 2.6 ± 3.5 nM.

B7: AniS-U7 (structured_RNA)
RNA: GGUUUCCUCUUGAUGUGUGUGUUUGGGUGUGGCUGCCGCCACCCCUUUUUUU
Take B7: in data set [3] (7-U tail), the Kd was found to be 0.82 ± 0.21 nM.

B8: rpmG-U5 (structured_RNA)
RNA: GGGAUUUCAGUUUGAAAGCAAAGCCUCCGACUGUUCGGAGGCUUUUU
For the molecule B8, in data set [8], the Kd worked out at 0.47 ± 0.27 nM.

B9: AniS-loop (structured_RNA)
RNA: GGUUUCCUCUUGAUGUGUGUGUUUGGGUGUGGCGAAAGCCACCCCUUUUUUUU
Take B9: the dissociation constant Kd in [9] was 0.39 ± 0.18 nM.

B10: rpmG-U6AU (structured_RNA)
RNA: GGGAUUUCAGUUUGAAAGCAAAGCCUCCGACUGUUCGGAGGCUUUUUUAU
For the molecule B10, in [10] (8 nt 3' tail), the Kd stood at 0.2 ± 0.23 nM.

B11: rpmG-U6A (structured_RNA)
RNA: GGGAUUUCAGUUUGAAAGCAAAGCCUCCGACUGUUCGGAGGCUUUUUUA
Turning to B11, in data set [11], the equilibrium dissociation constant (Kd) was less than 0.5 nM.

B12: rpmG-loop-44 (structured_RNA)
RNA: GGGAUUUCAGUUUGAAAGCAAAGCCUCCGAAAGGAGGCUUUUUU
B12: the Kd in data set [12] was 4 ± 2 nM.

B13: rpmG-loop (structured_RNA)
RNA: GGGAUUUCAGUUUGAAAGCAAAGCCUCCGAGAAAUCGGAGGCUUUUUU
For the molecule B13, the Kd in data set [13] is 0.5 ± 0.34 nM.

B14: rpmG-3' (structured_RNA)
RNA: GGGAUUUCAGUUUGAAAGCAAAGCCUCCGACUGUUCGGAGGCUUUUUU
On to B14, for which the Kd in data set [10] (6-U 3' tail, 3 U paired with upstream A) came out at 1 ± 0.52 nM.

B15: rpmG-loop-40 (structured_RNA)
RNA: GGGAUUUCAGUUUGAAAGCAAAGCCUGAAAAGGCUUUUUU
With B15, in [14], the Kd turned out to be 1.2 ± 1.5 nM.

B16: rpmG-loop-36 (structured_RNA)
RNA: GGGAUUUCAGUUUGAAAGCAAAGCGAAAGCUUUUUU
Turning to B16, the Kd in data set [15] is 0.13 ± 0.14 nM.

B17: intergenic (structured_RNA)
RNA: GGUAAUGCCGAAAGGGGUUUGACGAUGCCGGCGUGCGCUGUCAAACCCUUUUUCU
Consider B17, for which the dissociation constant (Kd) in data set [16] is 1.4 ± 1 nM.
